Measured values taken from patent US7994133B2, “Isozyme-specific antagonists of protein kinase C” (The Board of Trustees of the Leland Stanford Junior …, priority 2003, dated 2011).

System: CHO and MCF-7 cells
Assay: PKC translocation by Western blot, soluble to particulate fraction, after PMA
Type: cell-based
Settings: 10 minutes PMA, 100 nM in CHO, 10 nM in MCF-7
Method: To assess PKC distribution the different cell fractions were run on SDS PAGE, transferred for Western blot analysis and probed with anti-εPKC V5 antibodies. Lysates of overexpressed GFP-εPKC were diluted to approximately 0.2 μg/well. At this concentration endogenous εPKC was not detected. All other methods for this Example were performed as described, for example, in Example 4. It was also confirmed that the Wt and ΨεRACK εPKC mutants were sensitive to activation by phorbol ester and that they translocated from the soluble to the particulate fraction of the cell upon activation. Translocation of the εPKC mutants was determined using two different cell lines, MCF-7 and CHO. [CHO cells were stimulated for 10 minutes with 100 nM PMA (FIG. 6C). MCF-7 cells were stimulated with 10 nM PMA for 10 minutes (FIG. 6D, 6E), since stimulation of MCF-7 cells with higher doses of PMA caused a detachment of the cells]. After treatment with PMA, cells were fractionated into soluble and particulate fractions, and GFP-εPKC was detected and quantified by Western blot analysis using anti-εPKC. […] This is not due to PKC degradation; the total amount of εPKC was not changed upon activation. Therefore, GFP-εPKC ΨεRACK mutants were catalytically active and responded to activation by PMA by translocating from the soluble to the particulate fraction of the cell.

B1: D(86)A: εPKC mutant wherein D at position 86 of ΨεRACK on εPKC is substituted with an A (protein)
chain: MVVFNGLLKIKICEAVSLKPTAWSLRHAVGPRPATFLLDPYIALNVDDSRIGQTATKQKTNSPAWHDEFVTDVCNGRKIELAVFHAAPIGYDDFVANCTIQFEELLQNGSRHFEDWIDLEPEGRVYVIIDLSGSSGEAPKDNEERVFRERMRPRKRQGAVRRRVHQVNGHKFMATYLRQPTYCSHCRDFIWGVIGKQGYQCQVCTCVVHKRCHELIITKCAGLKKQETPDQVGSQRFSVNMPHKFGIHNYKVPTFCDHCGSLLWGLLRQGLQCKVCKMNVHRRCETNVAPNCGVDARGIAKVLADLGVTPDKITNSGQRRKKLIAGAESPQPASGGSPSEEDRSKSAPTSPCDQEIKELENNIRKALSFDNRGEEHRAASSPDGQLMSPGENGEVRQGQAKRLGLDEFNFIKVLGKGSFGKVMLAELKGKDEVYAVKVLKKDVILQDDDVDCTMTEKRILALARKHPYLTQLYCCFQTKDRLFFVMEYVNGGDLMFQIQRSRKFDEPRSRFYAAEVTSALMFLHQHGVIYRDLKLDNILLDAEGHCKLADFGMCKEGILNGVTTTTFCGTPDYIAPEILQELEYGPSVDWWALGVLMYEMMAGQPPFEADNEDDLFESILHDDVLYPVWLSKEAVSILKAFMTKNPHKRLGCVASQNGEDAIKQHPFFKEIDWVLLEQKKIKPPFKPRIKTKRDVNNFDQDFTREEPVLTLVDEAIVKQINQEEFKGFSYFGEDLMP
In the case of B1, the “increase of εPKC in the particulate fraction compared with D(86)N or Wt” value is reported as “greater increase”.
